According to US20250236663A1:
One block for each binder: values may come before it.

Tests used:
[1] = target: Recombinant human FAM19A5 protein (His-tagged) (human) (UniProt Q7Z5A7); experiment: OCTET (BLI), His-tagged FAM19A5 on Ni-NTA biosensors, antibody at 1.1-300 nM
[2] = target: Recombinant human FAM19A5 protein (His-tagged) (human) (UniProt Q7Z5A7); experiment: ELISA, N'-Term His; parameters: unit not given here
[3] = target: Recombinant human FAM19A5 protein (His-tagged) (human) (UniProt Q7Z5A7); experiment: ELISA, N'-Term His; R² 0.8823
[4] = target: Recombinant human FAM19A5 protein (His-tagged) (human) (UniProt Q7Z5A7); experiment: two-site sandwich ELISA, capture antibody P2-A03; O.D. 0.15 / 0.16 / 0.14 at antigen 100 / 10 / 0 (ng/mL); grey box
[5] = target: Recombinant human FAM19A5 protein (His-tagged) (human) (UniProt Q7Z5A7); experiment: two-site sandwich ELISA, capture antibody 2-13; O.D. 1.92 / 0.65 / 0.21 at antigen 100 / 10 / 0 (ng/mL); white box
[6] = target: Recombinant human FAM19A5 protein (His-tagged) (human) (UniProt Q7Z5A7); experiment: two-site sandwich ELISA, capture antibody 3-2; O.D. 1.7 / 0.3 / 0.13 at antigen 100 / 10 / 0 (ng/mL); white box
[7] = target: Recombinant human FAM19A5 protein (His-tagged) (human) (UniProt Q7Z5A7); experiment: two-site sandwich ELISA, capture antibody 1-65; O.D. 0.12 / 0.12 / 0.12 at antigen 100 / 10 / 0 (ng/mL); grey box
[8] = target: Recombinant human FAM19A5 protein (His-tagged) (human) (UniProt Q7Z5A7); experiment: two-site sandwich ELISA, capture antibody P2-F11; O.D. 0.14 / 0.16 / 0.15 at antigen 100 / 10 / 0 (ng/mL); grey box
[9] = target: Recombinant human FAM19A5 protein (His-tagged) (human) (UniProt Q7Z5A7); experiment: ELISA, N'-Term His; R² 0.9692
[10] = target: Recombinant human FAM19A5 protein (His-tagged) (human) (UniProt Q7Z5A7); experiment: two-site sandwich ELISA, capture antibody 3-2; O.D. 2.02 / 1.81 / 0.13 at antigen 100 / 10 / 0 (ng/mL); white box
[11] = target: Recombinant human FAM19A5 protein (His-tagged) (human) (UniProt Q7Z5A7); experiment: two-site sandwich ELISA, capture antibody 13B4; O.D. 0.2 / 0.18 / 0.18 at antigen 100 / 10 / 0 (ng/mL); grey box
[12] = target: Recombinant human FAM19A5 protein (His-tagged) (human) (UniProt Q7Z5A7); experiment: two-site sandwich ELISA, capture antibody P2-A03; O.D. 0.09 / 0.09 / 0.09 at antigen 100 / 10 / 0 (ng/mL); grey box
[13] = target: Recombinant human FAM19A5 protein (His-tagged) (human) (UniProt Q7Z5A7); experiment: two-site sandwich ELISA, capture antibody 2-13; O.D. 1.83 / 2.04 / 0.29 at antigen 100 / 10 / 0 (ng/mL); white box
[14] = target: Recombinant human FAM19A5 protein (His-tagged) (human) (UniProt Q7Z5A7); experiment: two-site sandwich ELISA, capture antibody 1-65; O.D. 1.25 / 0.2 / 0.12 at antigen 100 / 10 / 0 (ng/mL); grey box but for the cell of 100
[15] = target: Recombinant human FAM19A5 protein (His-tagged) (human) (UniProt Q7Z5A7); experiment: ELISA, N'-Term His; R² 0.9813
[16] = target: Recombinant human FAM19A5 protein (His-tagged) (human) (UniProt Q7Z5A7); experiment: ELISA, N'-Term His; R² -0.2016
[17] = target: Recombinant human FAM19A5 protein (His-tagged) (human) (UniProt Q7Z5A7); experiment: ELISA, N'-Term His; R² 0.9105
[18] = target: Recombinant human FAM19A5 protein (His-tagged) (human) (UniProt Q7Z5A7); experiment: two-site sandwich ELISA, capture antibody P2-F11; O.D. 0.15 / 0.15 / 0.14 at antigen 100 / 10 / 0 (ng/mL); grey box
[19] = target: Recombinant human FAM19A5 protein (His-tagged) (human) (UniProt Q7Z5A7); experiment: two-site sandwich ELISA, capture antibody 2-13; O.D. 1.88 / 1.72 / 0.22 at antigen 100 / 10 / 0 (ng/mL); white box
[20] = target: Recombinant human FAM19A5 protein (His-tagged) (human) (UniProt Q7Z5A7); experiment: two-site sandwich ELISA, capture antibody 3-2; O.D. 1.91 / 1.66 / 0.16 at antigen 100 / 10 / 0 (ng/mL); white box
[21] = target: Recombinant human FAM19A5 protein (His-tagged) (human) (UniProt Q7Z5A7); experiment: two-site sandwich ELISA, capture antibody 1-65; O.D. 0.16 / 0.15 / 0.15 at antigen 100 / 10 / 0 (ng/mL); grey box
[22] = target: Recombinant human FAM19A5 protein (His-tagged) (human) (UniProt Q7Z5A7); experiment: ELISA, N'-Term His; R² 0.9746
[23] = target: Recombinant human FAM19A5 protein (His-tagged) (human) (UniProt Q7Z5A7); experiment: two-site sandwich ELISA, capture antibody 13B4; O.D. 0.27 / 0.22 / 0.22 at antigen 100 / 10 / 0 (ng/mL); grey box
[24] = target: Recombinant human FAM19A5 protein (His-tagged) (human) (UniProt Q7Z5A7); experiment: ELISA, N'-Term His; R² 0.9329

B1: Anti-FAM19A5 (15A9) (antibody, V domains shown)
VH: QVQLQESGPGLVKPSETLSLTCTVSGGSISSYYWSWIRQPPGKGLEWIGYIYPSGSTNYNPSLKSRVTISVDTSKNQFSLNLKSVTAVDTAVYYCARVNPFGYYYAMDVWGQGTTVTVSS
VL: DIQMTQSPSSLSASVGDRITISCRASQSISTSLNWYQQTPGKAPRLLIYGASTLQSGVPSRFSGGGSGTDFSLTITSLQPEDFATYYCQESASIPRTFGQGTKLDIK
Kd [1]: 5.95 nM

B4: P1-A03 (antibody, V domains shown)
VH: QSVEESGGRLVTPGTPLTLTCTVSGFSLSSDYMSWVRQAPGEGLEWIGIIYPSTTTYYASWAKGRFTISKTSSTTVELKMTSLTTEDTATYFCARGSNWSSGMNLWGPGTLVTVSS
VL: ELVMTQTPPSLSASVGETVRIRCLASEDIYSGISWYQQKPEKPPTLLISGASNLESGVPPRFSGSGSGTDYTLTIGGVQAEDAATYYCLGGYSYSSTGLTFGAGTNVEIK
Bmax [2]: 2.45
Kd [15]: 7.5 nM

B5: Anti-FAM19A5 (P1-A08) (antibody, V domains shown)
VH: QSLEESGGRLVTPGTPLTLTCTASGFSLSTYYMSWVRQAPGKGLEWIGIVYPSGTTYYANWAKGRFTISTASTTVDLMITSPTTEDTATYFCARGDSFGYGLWGPGTLVTVSS
VL: ELVLTQSPSVQVNLGQTVSLTCTADTLSRSYASWYQQKPGQAPVLLIYRDTSRPSGVPDRFSGSSSGNTATLTISGAQAGDEADYYCATSDGSGSNYQYVFGGGTQLTVT
Kd [16]: 6.95 nM
Bmax [2]: 0.479

B8: Anti-FAM19A5 (P2-A03) (antibody, V domains shown)
VH: QSVEESGGRLVTPGTPLTLTCTVSGFSLNNYDMSWVRQAPGKGLEYIGFMDTDGSAYYATWAKGRFTISRTSTTVDLKMTSPTTEDTATYFCARRGSSYYGGIDIWGPGTPVTVSL
VL: ELDLTQTPASVSEPVGGTVTIKCQASQSIGGNLAWYQQKPGQPPKLLIYRASTLASGVPSRFKGSGSGTDFTLTISDLECADAATYYCQSPAYDPAAYVGNAFGGGTELEIL
S/N [18]: 1.1
Bmax [2]: 3.37
S/N [19]: 7.8
S/N [20]: 10
S/N [21]: 1
Kd [22]: 0.61 nM
S/N [23]: 1

Next, values leading:

Kd [1]: 3.6 nM
Bmax [2]: 2.84
Kd [3]: 1.06 nM
S/N [4]: 1.1
S/N [5]: 3.1
S/N [6]: 2.3
S/N [7]: 1
S/N [8]: 1.1
B2: Anti-FAM19A5 (13B4) (antibody, V domains shown)
VH: QVQLQESGPGLVKPSGTLSLNCAVSGGSISSSNWWSWVRQPPGKGLEWIGEIYHGGTTNYNPSLKGRVTMSVDKTKNQFSLRLSSVTAVDTAVYYCARWQLVGGLDVWGQGTTVTVSS
VL: SYELTQPLSVSVSPGQTASITCSGDKLGNVYASWYQQKPGQSPTLVIYQDNKRPSGIPERFSGSNSGKTATLTISGTQALDEADYYCQAWDSSTAVFGGGTKLTVL

Kd [9]: 0.41 nM
Bmax [2]: 3.26
S/N [10]: 13.9
S/N [11]: 1
S/N [12]: 1
S/N [13]: 7
S/N [14]: 1.7
B3: Anti-FAM19A5 (P2-F11) (antibody, V domains shown)
VH: QEQLVESGGRLVTPGTTLTLTCTVSGFSLSSYGVSWVRQAPGKGLEWIGYIANNYNPHYASWAKGRFTISKTSSTTVDLKMTSLTTEDTATYFCARDNYGMDPWGPGTLVTVSS
VL: ELDLTQTPSSVSAAVGGTVTINCQASQSVYNNKNLAWYQQKPGQPPKLLIYAASTLASGVSSRFKGSGSGTQFTLTISDVQCDDAATYYCQGEFSCSSADCNAFGGGTELEIL

Bmax [2]: 0.172
B6: Anti-FAM19A5 (P1-F02) (antibody, V domains shown)
VH: QSLEESGGRLVTPGTPLTLTCTASGFSLSNYYMGWVRQAPGEGLEWIGIIYASGSTYYASWAKGRFTISKTSTTVDLKMTSLTTEDTATYFCARIDIGVGDYGWAYDRLDLWGQGTLVTVSS
VL: ELDMTQTPPSLSASVGETVRIRCLASEDIYSGISWYQQKPGKPPTLLIYGASNLESGVPPRFSGSGSGTDYTLTIGGVQAEDAATYYCLGGYSYSSITFGAGTNVEIK

Bmax [2]: 1.19
Kd [17]: 9.09 nM
B7: Anti-FAM19A5 (P2-A01) (antibody, V domains shown)
VH: QEQLVESGGRLVTPGTPLTLSCTASGFFLSGYYMSWVRQAPGKGLEWIGIIYPSGSTDYASWAKGRFTISKTSTTVDLKITTPTTEDTATYFCARVAGYVGYGYETFFDIWGPGTLVTVSL
VL: ELVMTQTPPSLSASVGETVRIRCLASEDIYSGISWYQQKPGKPPTLLIYGASNLESGVPPRFSGSGSGSDYTLTIGGVQAEDAATYYCLGGVTYSSTGTHLTFGAGTNVEIK

Bmax [2]: 0.134
B9: Anti-FAM19A5 (P2-F07) (antibody, V domains shown)
VH: QSLEESGGRLVTPGTPLTLTCTASGFSLSSYYMNWVRQAPGKGLEWIGIIYPSGTTYYAGWAKGRFTISKTSTTVDLKITSPTSEDTATYFCARTVSGYFDIWGPGTLVTVSL
VL: ELDLTQTPPSLSASVGGTVTINCLASEDIYSALAWYQQKPGKPPTLLISGTSNLESGVPPRFSGSGSGTDYTLTIGGVQAEDAATYFCQGYSSYPLTFGAGTNVEIK

Kd [1]: 0.25 nM
Bmax [2]: 3.04
Kd [24]: 2.77 nM
B10: Anti-FAM19A5 (13F7) (antibody, V domains shown)
VH: QVQLQEWGAGLLKPSETLSLTCAINAESFNGYSWTWIRQTPGKGLEWIGEISHFGSANYNPSLKSRATISADKSKNQFSLKLTSVTAVDTAVYYCARALRGTYSRFYYGMDVWGQGTTVTVSS
VL: DIVMTQTPLSLPVAPGEPASISCRSSQSLLHSNGYNYLDWYVQKPGQPPQLLIYLGSNRASGVPDRFSGSGSGTDFTLKISRVEAEDVGVYYCMQARQTPLTFGGGTKVEIK
